Patent US20140178389A1 (AbbVie / Abbott, published 2014)

T1: recombinant human IL-1α (human, UniProt P01583 113-271)
T1 sequence: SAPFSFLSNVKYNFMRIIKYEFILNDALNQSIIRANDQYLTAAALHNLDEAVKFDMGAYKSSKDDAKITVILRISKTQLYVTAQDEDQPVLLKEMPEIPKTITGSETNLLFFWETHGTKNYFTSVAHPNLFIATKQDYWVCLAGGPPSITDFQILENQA

T2: recombinant cynomolgus IL-1β (cynomolgus, UniProt P79182 117-268)
T2 sequence (looked up): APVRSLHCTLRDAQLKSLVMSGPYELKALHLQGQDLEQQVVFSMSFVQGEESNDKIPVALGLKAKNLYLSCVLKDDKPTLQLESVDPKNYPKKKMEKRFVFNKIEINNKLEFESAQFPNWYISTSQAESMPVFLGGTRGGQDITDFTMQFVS

T3: recombinant cynomolgus IL-1α (cynomolgus, UniProt P79340 113-271)
T3 sequence (looked up): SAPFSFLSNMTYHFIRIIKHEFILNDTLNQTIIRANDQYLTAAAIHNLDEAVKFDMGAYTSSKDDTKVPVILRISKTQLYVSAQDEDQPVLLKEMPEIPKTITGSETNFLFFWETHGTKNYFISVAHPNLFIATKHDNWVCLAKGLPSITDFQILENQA

T4: native human IL-1α present in crude supernatants (human, UniProt P01583 113-271, limits assumed)
T4 sequence (looked up): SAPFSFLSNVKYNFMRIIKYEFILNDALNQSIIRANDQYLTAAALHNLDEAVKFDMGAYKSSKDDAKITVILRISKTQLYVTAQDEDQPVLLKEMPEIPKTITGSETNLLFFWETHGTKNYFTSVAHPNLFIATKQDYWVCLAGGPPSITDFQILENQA


Legend:
[1] = target: T1, recombinant human IL-1α; assay: cell-based or functional assay
[2] = target: T2, recombinant cynomolgus IL-1β; assay: cell-based or functional assay
[3] = target: T3, recombinant cynomolgus IL-1α; assay: cell-based or functional assay
[4] = target: T5, recombinant human IL-1β (human, UniProt P01584 117-269); assay: cell-based or functional assay
[5] = target: purified native human IL-1β (human, UniProt P01584 117-269); assay: cell-based or functional assay
[6] = target: T4, native human IL-1α present in crude …; assay: cell-based or functional assay
[7] = target: T1, recombinant human IL-1α; assay: SPR (BIAcore), DVD-Ig captured via goat anti-human IgG Fc
Protocol: (§1) Goat IgGs specific to human IgG Fc were covalently linked to the carboxy methyl dextran matrix on the CMS biosensor chip via free amine groups using an amine coupling kit and the immobilization wizard option in the Biacore instruments controlling software. Specifically, carboxyl groups of the dextran matrix on the chip were activated with NHS and EDC. Goat anti-human IgG Fc antibodies (25 μg/mL), diluted in 10 mM sodium acetate, pH 4.5, were injected across the activated surface. Once the level of binding response reached the desired value, unreacted groups were deactivated by injection of 1M ethanolamine. For binding of IL-1α & IL-1β to captured Ig, a 1 μg/mL concentration of Ig in HBS-EP+ was injected over the goat anti-human IgG Fc surface at a flow rate of 10 μL/min for 1 minute. The net difference in the baseline signal and the signal after the completion of the Ig injection was taken to represent the amount of bound Ig.
(§2) The potency of the 5 DVD-Igs containing affinity matured h1B12.1 domains to recombinant and native IL-1 antigens was determined using the MRC-5 bioassay as shown in Table 24. The binding kinetics of the DVD-Igs to recombinant human and cynomolgus IL-1α and IL-1β were determined using surface plasmon resonance. In some cases, the off-rate could not be determined as they reached the limit of detection of the instrument.

[8] = target: T2, recombinant cynomolgus IL-1β; assay: as above
Protocol: as §1, §2

[9] = target: T3, recombinant cynomolgus IL-1α; assay: as above
Protocol: as §1, §2

[10] = target: T5, recombinant human IL-1β; assay: as above
Protocol: as §1, §2

Binder	Potency (IC50) pM, MRC-5 bioassay [1]	Potency (IC50) pM, MRC-5 bioassay [2]	Potency (IC50) pM, MRC-5 bioassay [3]	Potency (IC50) pM, MRC-5 bioassay [4]	Potency (IC50) pM, MRC-5 bioassay [5]	Potency (IC50) pM, MRC-5 bioassay [6]	Kd [7]	koff [7]	kon [7]	Kd [8]	koff [8]	kon [8]	Kd [9]	koff [9]	kon [9]	Kd [10]	koff [10]	kon [10]
DVD1-h1B12.13-SS-X3, human anti-IL-1α/β DVD IgG1/k mut (234,235) (bispecific antibody, also called PR-1358316) heavy: not shown light: DIQMTQSPSSLSASVGDRVTITCQTSTDIDDDLNWYQQKPGKAPKLLISLASTLRPGVPSRFSGSGSGTDFTFTISSLQPEDFATYYCLQSDRLPLTFGQGTKLEIKRTVAAPDIQMTQSPSSVSASVGDRVTITCRASQGISSWLAWYQQKPGKAPKLLIYEASNLETGVPSRFSGSGSGSDFTLTISSLQPEDFATYYCQQTSSFLLSFGGGTKVEHKRTVAAPSVFIFPPSDEQLKSGTASVVCLLNNFYPREAKVQWKVDNALQSGNSQESVTEQDSKDSTYSLSSTLTLSKADYEKHKVYACEVTHQGLSSPVTKSFNRGEC	45.4 pM	3.62 pM	2440 pM	55.9 pM	1.64 pM	24.4 pM	0.021 nM	2.9e-06 s⁻¹	140000 M⁻¹ s⁻¹	0.0015 nM	1.7e-05 s⁻¹	1.2e+07 M⁻¹ s⁻¹	2.3 nM	0.00023 s⁻¹	100000 M⁻¹ s⁻¹	0.00022 nM	5.1e-06 s⁻¹	2.3e+07 M⁻¹ s⁻¹
DVD5-h1B12.A3-SS-X3, human anti-IL-1α/β DVD IgG1/k mut (234,235) (bispecific antibody, also called PR-1358321) heavy: not shown light: DIQMTQSPSSLSASVGDRVTITCQASTDIDDDLNWYQQKPGKAPKLLISLGSTLRPGVPSRFSGSGSGTDFTFTISSLQPEDFATYYCLQSDRLPLTFGQGTKLEIKRTVAAPDIQMTQSPSSVSASVGDRVTITCRASQGISSWLAWYQQKPGKAPKLLIYEASNLETGVPSRFSGSGSGSDFTLTISSLQPEDFATYYCQQTSSFLLSFGGGTKVEHKRTVAAPSVFIFPPSDEQLKSGTASVVCLLNNFYPREAKVQWKVDNALQSGNSQESVTEQDSKDSTYSLSSTLTLSKADYEKHKVYACEVTHQGLSSPVTKSFNRGEC	44.3 pM	6.56 pM	1920 pM	51.2 pM	4.27 pM	57.6 pM	0.01 nM	1.6e-06 s⁻¹	150000 M⁻¹ s⁻¹	0.001 nM	1.3e-05 s⁻¹	1.3e+07 M⁻¹ s⁻¹	2.4 nM	0.00027 s⁻¹	110000 M⁻¹ s⁻¹	0.0005 nM	1.3e-05 s⁻¹	2.6e+07 M⁻¹ s⁻¹

The remaining lines, values ahead:

Potency (IC50) pM, MRC-5 bioassay [1]	Potency (IC50) pM, MRC-5 bioassay [2]	Potency (IC50) pM, MRC-5 bioassay [3]	Potency (IC50) pM, MRC-5 bioassay [4]	Potency (IC50) pM, MRC-5 bioassay [5]	Potency (IC50) pM, MRC-5 bioassay [6]	Kd [7]	koff [7]	kon [7]	Kd [8]	koff [8]	kon [8]	Kd [9]	koff [9]	kon [9]	Kd [10]	koff [10]	kon [10]	Binder
42.8 pM	1.86 pM	1640 pM	48.6 pM	1.91 pM	72 pM	0.12 nM	1.6e-05 s⁻¹	140000 M⁻¹ s⁻¹	0.0016 nM	1.8e-05 s⁻¹	1.1e+07 M⁻¹ s⁻¹	2 nM	0.00021 s⁻¹	100000 M⁻¹ s⁻¹	0.0002 nM	5.1e-06 s⁻¹	2.5e+07 M⁻¹ s⁻¹	DVD2-h1B12.21-SS-X3, human anti-IL-1α/β DVD IgG1/k mut (234,235) (bispecific antibody, also called PR-1358317) heavy: not shown light: DIQMTQSPSSLSASVGDRVTITCQTSQDIDMDLNWYQQKPGKAPKLLISQGSTLWPGVPSRFSGSGSGTDFTFTISSLQPEDFATYYCLQTDSFPLTFGQGTKLEIKRTVAAPDIQMTQSPSSVSASVGDRVTITCRASQGISSWLAWYQQKPGKAPKLLIYEASNLETGVPSRFSGSGSGSDFTLTISSLQPEDFATYYCQQTSSFLLSFGGGTKVEHKRTVAAPSVFIFPPSDEQLKSGTASVVCLLNNFYPREAKVQWKVDNALQSGNSQESVTEQDSKDSTYSLSSTLTLSKADYEKHKVYACEVTHQGLSSPVTKSFNRGEC
38.6 pM	4.02 pM	2580 pM	58.6 pM	2.46 pM	50.9 pM	0.2 nM	3.6e-05 s⁻¹	180000 M⁻¹ s⁻¹	0.0018 nM	9.6e-06 s⁻¹	5.3e+06 M⁻¹ s⁻¹	2.6 nM	0.00035 s⁻¹	130000 M⁻¹ s⁻¹	≤ 0.00098 nM	≤ 1e-05 s⁻¹	1.1e+07 M⁻¹ s⁻¹	DVD4-h1B12.A1-SS-X3, human anti-IL-1α/β DVD IgG1/k mut (234,235) (bispecific antibody, also called PR-1358319) heavy: not shown light: DIQMTQSPSSLSASVGDRVTITCQASQDIDMDLNWYQQKPGKAPKLLISQANTLPPGVPSRFSGSGSGTDFTFTISSLQPEDFATYYCLQSDWLPLTFGQGTKLEIKRTVAAPDIQMTQSPSSVSASVGDRVTITCRASQGISSWLAWYQQKPGKAPKLLIYEASNLETGVPSRFSGSGSGSDFTLTISSLQPEDFATYYCQQTSSFLLSFGGGTKVEHKRTVAAPSVFIFPPSDEQLKSGTASVVCLLNNFYPREAKVQWKVDNALQSGNSQESVTEQDSKDSTYSLSSTLTLSKADYEKHKVYACEVTHQGLSSPVTKSFNRGEC
